Results reported in publication PMC6116751, “An enzymatic system for decolorization of wastewater dyes using immobilized CueO laccase‐like multicopper oxidase on poly‐3‐hydroxybutyrate” (Microbial Biotechnology, 2018).

Substrate: COc1cccc(OC)c1O
Experiment: purified protein
Format: biochemical, Escherichia coli
Details: soluble enzyme, 20 mM Tris pH 6.5, 10 μM Cu2+, 30 °C

B1: BioF–CueO (CueO laccase-like multicopper oxidase fused to BioF tag) (Escherichia coli K-12) (protein)
chain: AERPTLPIPDLLTTDARNRIQLTIGAGQSTFGGKTATTWGYNGNLLGPAVKLQRGKAVTVDIYNQLTEETTLHWHGLEVPGEVDGGPQGIIPPGGKRSVTLNVDQPAATCWFHPHQHGKTGRQVAMGLAGLVVIEDDEILKLMLPKQWGIDDVPVIVQDKKFSADGQIDYQLDVMTAAVGWFGDTLLTNGAIYPQHAAPRGWLRLRLLNGCNARSLNFATSDNRPLYVIASDGGLLPEPVKVSELPVLMGERFEVLVEVNDNKPFDLVTLPVSQMGMAIAPFDKPHPVMRIQPIAISASGALPDTLSSLPALPSLEGLTVRKLQLSMDPMLDMMGMQMLMEKYGDQAMAGMDHSQMMGHMGHGNMNHMNHGGKFDFHHANKINGQAFDMNKPMFAAAKGQYERWVISGVGDMMLHPFHIHGTQFRILSENGKPPAAHRAGWKDTVKVEGNVSEVLVKFNHDAPKEHAYMAHCHLLEHEDTGMMLGFTV
notes: signal peptide absent (the primer starts at mature Ala-Glu-Arg-Pro-Thr); cueO amplified from pCueO (pASK-IBA3 derivative); plasmid pDB2 (pET-21d); expressed in E. coli BL21(DE3), butyl sepharose; tag kept
Km: 400 ± 100 µM
kcat: 4.3 ± 0.1 s⁻¹
kcat/Km: 10700 M⁻¹ s⁻¹
